The target of test [1] is beta2-adrenergic receptor-luciferase fusion protein (human). As to the kind of experiment: bridge assay (Example 4A), sc-569 at 1 ng/ml in buffer.
The target is the same in test [2]. As to the kind of experiment: bridge assay (Example 4A), sc-569 at 2 ng/ml in buffer.
For test [3] the target is unchanged. Description: bridge assay (Example 4A), sc-569 at 5 ng/ml in buffer.
For test [4] the target is unchanged. Description: bridge assay (Example 4A), sc-569 at 10 ng/ml in buffer.
Test [5] has the same target. Description: bridge assay (Example 4A), sc-569 at 20 ng/ml in buffer.
Test [6] shares this target. As to the kind of experiment: bridge assay (Example 4A), sc-569 at 50 ng/ml in buffer.
For test [7] the target is unchanged. As to the kind of experiment: bridge assay (Example 4A), sc-569 at 100 ng/ml in buffer.
The target is the same in test [8]. As to the kind of experiment: bridge assay (Example 4A), sc-569 at 200 ng/ml in buffer.
Test [9] has the same target. As to the kind of experiment: bridge assay (Example 4A), sc-569 at 500 ng/ml in buffer.
Test [10] has the same target. Description: bridge assay (Example 4A), sc-569 at 1000 ng/ml in buffer.
Test [11] has the same target. Description: bridge assay (Example 4A), sc-569 at 2000 ng/ml in buffer.
Test [12] has the same target. As to the kind of experiment: bridge assay (Example 4A), sc-569 at 5000 ng/ml in buffer.
Test [13] has the same target. As to the kind of experiment: bridge assay (Example 4A), sc-569 at 10000 ng/ml in buffer.
The target is the same in test [14]. As to the kind of experiment: bridge assay (Example 4A), sc-569 at 20000 ng/ml in buffer.

With “Antibodies against B2 (sc-569 Santa Cruz, Calif., USA) (antibody)”, the RLU in [1] worked out at 24400 RLU; in [2], 25800 RLU; in test [3], 28100 RLU; in test [4] it was 33400 RLU; in test [5] it was 45100 RLU; in test [6] it was 76000 RLU. Besides, the RLU in [7] worked out at 93900 RLU; in test [8], 187000 RLU; in [9], 392000 RLU; in [10], 558000 RLU; in [11] it was 948000 RLU; in [12], 1.71e+06 RLU. Further, the results for the RLU in test [13] and in test [14] were 2.39e+06 RLU and 2.87e+06 RLU, respectively.

These data come from US20180143213A1.
